Experimental data as given in patent US20060058505A1, “Nucleic acid and polypeptide linked to breast cancer and uses therefor” (priority 2001, published 2006).

T1: His-tagged N-terminal SH3 domain containing region of rasGAP^120 (Homo sapiens, UniProt P20936)
T1 construct: containing amino acids 1-356 which includes the full SH3 domain of rasGAP^120; made in house; host or cells: E. coli (DH5), IPTG induction; used as bacterial lysate
T1 sequence (P20936 1-356): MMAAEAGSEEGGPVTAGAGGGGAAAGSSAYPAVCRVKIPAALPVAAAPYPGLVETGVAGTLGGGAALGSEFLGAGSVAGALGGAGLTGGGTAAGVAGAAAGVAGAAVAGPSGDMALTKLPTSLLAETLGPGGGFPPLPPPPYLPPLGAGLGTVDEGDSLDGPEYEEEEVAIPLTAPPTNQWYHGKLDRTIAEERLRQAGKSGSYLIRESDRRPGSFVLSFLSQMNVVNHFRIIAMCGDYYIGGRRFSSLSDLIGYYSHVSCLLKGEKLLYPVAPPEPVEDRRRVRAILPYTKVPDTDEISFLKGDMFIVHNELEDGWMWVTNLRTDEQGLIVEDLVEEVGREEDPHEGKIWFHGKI

B1: δ-2a-N146: GST fusion of truncated G3BP-2a peptide including the N-terminal amino acids 1 to 146 (NTF2-like domain) (protein, UniProt Q9UN86 1-146, looked up, fragment)
chain: MVMEKPSPLLVGREFVRQYYTLLNKAPEYLHRFYGRNSSYVHGGVDASGKPQEAVYGQNDIHHKVLSLNFSECHTKIRHVDAHATLSDGVVVQVMGLLSNSGQPERKFMQTFVLAPEGSVPNKFYVHNDMFRYEDEVFGDSEPELD
modifications: isoform 2a GST fusion
B2: δ-2a-N257: GST fusion of truncated G3BP-2a peptide; number is the amino acid at the truncation site (protein, UniProt Q9UN86 1-257, looked up, fragment)
chain: MVMEKPSPLLVGREFVRQYYTLLNKAPEYLHRFYGRNSSYVHGGVDASGKPQEAVYGQNDIHHKVLSLNFSECHTKIRHVDAHATLSDGVVVQVMGLLSNSGQPERKFMQTFVLAPEGSVPNKFYVHNDMFRYEDEVFGDSEPELDEESEDEVEEEQEERQPSPEPVQENANSGYYEAHPVTNGIEEPLEESSHEPEPEPESETKTEELKPQVEEKNLEELEEKSTTPPPAEPVSLPQEPPKAFSWASVTSKNLPPS
modifications: isoform 2a GST fusion
notes: GST fusion of truncated G3BP-2a peptide; number is the amino acid at the truncation site
B3: full length G3BP-2a: full length G3BP-2a expressed as GST-fusion protein (protein)
chain: MVMEKPSPLLVGREFVRQYYTLLNKAPEYLHRFYGRNSSYVHGGVDASGKPQEAVYGQNDIHHKVLSLNFSECHTKIRHVDAHATLSDGVVVQVMGLLSNSGQPERKFMQTFVLAPEGSVPNKFYVHNDMFRYEDEVFGDSEPELDEESEDEVEEEQEERQPSPEPVQENANSGYYEAHPVTNGIEEPLEESSHEPEPEPESETKTEELKPQVEEKNLEELEEKSTTPPPAEPVSLPQEPPKAFSWASVTSKNLPPSGTVSSSGIPSHVKAPVSQPRVEAKPEVQSQPPRVREQRPRERPGFPPRGPRPGRGDMEQNDSDNRRIIRYPDSHQLFVGNLPHDIDENELKEFFMSFGNVVELRINTKGVGGKLPNFGFVVFDDSEPVQRILIAKPIMFRGEVRLNVEEKKTRAARERETRGGGDDRRDIRRNDRGPGGPRGIVGGGMMRDRDGRGPPPRGGMAQKLGSGRGTGQMEGRFTGQRR
modifications: left off: a dimerising Fc or GST
notes: full length G3BP-2a expressed as GST-fusion protein
B4: δ-2a-N329: GST fusion of truncated G3BP-2a peptide; number is the amino acid at the truncation site (protein, UniProt Q9UN86 1-329, looked up, fragment)
chain: MVMEKPSPLLVGREFVRQYYTLLNKAPEYLHRFYGRNSSYVHGGVDASGKPQEAVYGQNDIHHKVLSLNFSECHTKIRHVDAHATLSDGVVVQVMGLLSNSGQPERKFMQTFVLAPEGSVPNKFYVHNDMFRYEDEVFGDSEPELDEESEDEVEEEQEERQPSPEPVQENANSGYYEAHPVTNGIEEPLEESSHEPEPEPESETKTEELKPQVEEKNLEELEEKSTTPPPAEPVSLPQEPPKAFSWASVTSKNLPPSGTVSSSGIPPHVKAPVSQPRVEAKPEVQSQPPRVREQRPRERPGFPPRGPRPGRGDMEQNDSDNRRIIRYPD
modifications: isoform 2a GST fusion
notes: as for B2
B5: δ-2a-N205: GST fusion of truncated G3BP-2a peptide; number is the amino acid at the truncation site (protein, UniProt Q9UN86 1-205, looked up, fragment)
chain: MVMEKPSPLLVGREFVRQYYTLLNKAPEYLHRFYGRNSSYVHGGVDASGKPQEAVYGQNDIHHKVLSLNFSECHTKIRHVDAHATLSDGVVVQVMGLLSNSGQPERKFMQTFVLAPEGSVPNKFYVHNDMFRYEDEVFGDSEPELDEESEDEVEEEQEERQPSPEPVQENANSGYYEAHPVTNGIEEPLEESSHEPEPEPESETK
modifications: isoform 2a GST fusion
notes: as for B2

Columns and labels:
[1] = molecular target: T2, HLA-A*0201 molecule (Homo sapiens, UniProt P04439, D140Y/D185E/D98H/E176V/E277Q/G131W/G231S/I119V/I121R/I166T/I218V/L300P/L318F/N151K/N90K/P208A/P217A/Q86G/Q94H/R138H/R169H/T345S); assay: MHC/peptide binding assay (T2 binding assay); conditions: reference influenza MP 58-66 peptide
T2 construct: endogenous in cells; host or cells: T2 cells

[2] = test system: peripheral blood mononuclear cells (PBMC) from healthy individuals; assay: CTL responses induced by DC in PBMC, tested in IFN-γ ELISPOT; assay type: cell-based; conditions: after one (and two) round of stimulation, 2 separate donors
Description: The various peptides were evaluated for the generation of CTL responses induced by DC in peripheral blood mononuclear cells (PBMC) from healthy individuals and tested in ELISPOT (Gonzalez et al, 2000). T2 cells (target) pulsed with Peptide 1 or no peptide were labelled with ^51Cr and incubated with clone IH7 (effector) at various ratios. After 4 hours, ^51Cr released from lysed cells was measured and the percentage of specific lysis calculated with the formula: 100×(experimental release−spontaneous release)/(total release−spontaneous release). Total release was obtained with detergent lysis of labelled target.
Confirming this finding, we generated Peptide 1 specific CTL clones capable of identifying peptide-loaded targets in a classical chromium release assay (FIG. 11), the desired profile for an efficient anti-tumor response (Lopez and Hart, 2002), incorporated herein by reference. These clones will be instrumental in the evaluation of the expression of this antigen in cancer cells, allowing the formal evaluation of this molecule as a TAA.

[3] = molecular target: T1, His-tagged N-terminal SH3 domain containing region of rasGAP^120; assay: bead binding assay of GST-G3BP peptides with Western detection by anti-His antibody; conditions: GST fusions bound to glutathione beads
Description: However, the region within the G3BPs responsible for the observed interaction with rasGAP^120 has not been thoroughly investigated. Initially it was presumed that the interactions would be facilitated through proline rich motifs that are known to interact with SH3 domains (Lee et al. 1996). To further map the interactions between G3BPs and the SH3 domain of rasGAP^120 several GST-G3BP peptide fusions were expressed (FIG. 4) and probed in bead binding assays with His-tagged N-terminal rasGAP^120 peptides. The G3BP peptide constructs were designed to represent truncated proteins containing single or multiple domains as well as peptides that would contain isolated proline rich motifs (FIG. 4). In the assays GST-G3BP peptides are bound to glutathione beads and His-tagged N-terminal rasGAP^120 is added to the different constructs. Specific protein-protein interactions between the G3BP peptides and the SH3 domain of rasGAP^120 are detected by running the bound proteins on a Western blot and identifying His-tagged rasGAP^120 by probing with an anti-His antibody. […] No interactions were detected with the other domains of G3BP including the Acid-Rich domain, the RRM or the RGG-rich domain (FIG. 4).
Truncated cDNAs representing either N-terminal or C-Terminal sequences of G3BP-1 and G3BP-2a (FIG. 2) were subcloned into bacterial GST-fusion expression vectors (pGex, Pharmacia) so that the recombinant fusion proteins could be expressed and used in bead binding assays (see below) to identify the sub-domains of G3BP that interact with the SH3 domain of rasGAP^120. The vectors containing the recombinant fusion protein construct were transformed into competent DH5′ E. Coli and expressed by IPTG induction. To collect the recombinant proteins the cells were washed and resuspended in PBS and sonicated to release the fusion proteins.
The N-terminal domain of rasGAP^120 (kindly provided by Prof. I.G. Macara, University of Virginia) containing amino acids 1-356 which includes the full SH3 domain of rasGAP^120 was subcloned into proEX HT bacterial expression vector (Life Technologies) and expressed as described above.
Glutathione columns (Pharmacia) were blocked overnight at 4° C. in 1× binding buffer A (50 mM HEPES pH 7.4, 100 mM NaCl, 5 mM MgCl2, 50 mg/ml BSA, 1 mM DTT, 1 mM PMFS and protease inhibitors (Protease inhibitor cocktail, Roche Diagnostics, Australia). The following day the columns were washed twice with binding buffer A. Bacterial lysates containing either expressed GST alone or GST fusion proteins were diluted 1:1 with 2× binding buffer A and added to the equilibrated GST columns, the columns were gently rocked overnight at 4° C. To remove excess proteins the columns were washed twice in 1× binding buffer A. Bacterial lysates containing the His-tagged N-terminal of rasGAP^120 protein were combined with an equal volume of 2× binding buffer A containing 200 mg/ml BSA and 0.1% Tween. In addition to the high concentration of BSA, which is used to block non-specific protein-protein interactions, Ethidium bromide was added to a final concentration of 25 ng/ml to abrogate non-specific interactions caused by excess bacterial genomic DNA and bacterial RNA. This mix was then added to the pre-bound GST columns (above) and allowed to bind for 2 hrs at 4° C. The columns were then washed three times with binding buffer B (50 mM HEPES pH 7.4, 200 mM NaCl, 5 mM MgCl2, 1 mM DTT, 1 mM PMFS and protease inhibitors).
One μl of the GST beads complexed with proteins, as described above, was added to an equal volume of 2×PAGE loading dye, heated for 5 mins at 95° C. and loaded onto a 7.5% Polyacrylamide gel and run at 100V for 3 hours. The proteins were transferred to Nitrocellulose and probed with anti-His antibodies (Tetra-His antibody, Qiagen). Columns, which were bound with GST alone, were used as negative controls to ensure no non-specific His-tagged N-terminal rasGAP^120 remained associated with the columns. […]

[4] = molecular target: T3, HLA-A*0201 molecule on T2 cells; assay: T2 binding assay, HLA expression by flow cytometry
T3 construct: whole, on cells

Molecule	interaction with the N-terminal SH3 domain containing region of rasGAP^120 [3]	other results
IMFRGEVRL (human) [Peptide 2]	–	binding to the HLA-A*0201 molecule [1]: affinity equal to that of the control influenza MP 58-66 peptide
KLPNFGFVV (Human) [Peptide 1]	–	binding to the HLA-A*0201 molecule [1]: affinity equal to that of the control influenza MP 58-66 peptide; CTL responses: IFN-γ producing peptide specific CD8+ lymphocytes [2]: Strong responses
full length G3BP-1: full length G3BP-1 expressed as GST-fusion protein	interact	–
δ-1-N229: GST fusion of truncated G3BP-1 peptide; number is the amino acid at the truncation site	interact	–
δ-1-N309: GST fusion of truncated G3BP-1 peptide; number is the amino acid at the truncation site	interact	–
B1	interacted	–
IMFRGEVRL [Peptide 2 of G3BP-2 (IMFRGEVRL)]	–	binding result [4]: binds
B2	interacted	–
B3	interacted	–
B4	interacted	–
B5	interacted	–
KLPNFGFVV [Peptide 1 of G3BP-2 (KLPNFGFVV)]	–	binding result [4]: binds
